We go through 21 variants from the RNAGym collection of RNA variant scans (doi:10.1073/pnas.2313332121).

B1: TPR t1 (parent)
chain: GACCAAUCUGCCCUCAGAGCUCGAGAACAUCUUCGGAUGCAGAGGAGGCAGGCUUCGGUGGCGCGAUAGCGCCAACGUCCUCAACCUCCAAUGCAUCCCACCACAUGAUGAUGCCUGAAGAGCCUUGGUUUUUUG

The variants in this series derive from B1. The experiment in a line: polymerase ribozyme fitness, log enrichment relative to wild type (log ratio); higher = more active; in vitro selection for triplet polymerase activity. Summed up: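 Frozen incubation at −7 °C formed the core of a single, triplicate in vitro selection round applied to PCR-built, transcribed mutant libraries of each subunit of a heterodimeric triplet polymerase ribozyme. Extended constructs were gel-excised, captured with streptavidin beads and amplified by RT-PCR, and input and output libraries were Illumina-sequenced with a filter of ≥10 input reads and ≥1 read per output. Fitness is the logarithm of genotype enrichment relative to wild-type enrichment, with inverse-variance-weighted replicate averaging, and the logarithm is base 2.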
For the variant GACCAAUCUACUCUCAGAGCUCGAGAACAUCUUCGGAUGCAGAGGAGGCAGGCUUCGGUGGCGCGAUAGCUCCAACGUCCUCAACCUCCAAUGCAUCCCACCACAUGAUGAAGCCUGAAGAGCCUUGGUUUUUUG [G10A C12U G71U U112A], the “polymerase ribozyme fitness (log ratio)” value came out at 1.43.
In the case of GACCAAUCGGCCCUCAGAGCUCGAGAACAUCUUCGGAUGCAGAGGAGGCAGGCUACGGUGGCGCGAUAGCGCCAACGUCCUCAACCUCCAAUGCAUCCCACCACAUGAUGAUGCCUGAAGAGCCUUGGUUUUUUG [U9G U55A] it was -0.0521; in that of GACCAAUCGGCCCUCAGAGCUCGAGAACAUCUUCGGAUGCAGAGGAGGCAGGCUUCAGUGGCGCGAUAGCGCCAACGACCUCAACCUCCAAUGCAUCCCCCCACAUGAUGAUGCCUGAAGAGCCUUGGUUUUUUG [U9G G57A U78A A100C], -1.29; in that of GACCAAUCUACACUCAGAGCUCGAGAACAUCUUCGGAUGCAGAGGAGGCAGGCUUCGGUGGCGCGAUAGCGCCAACGUCCUCAACCUCCAAUGCAUCCCACAACAUGAUGAUGCCUGAAGAGCCUUGGUUUUUUG [G10A C12A C102A], -2.74.
In the case of GACCAAUCUACCCUCAGAGCUCGAGAGCAUGUUCGGAUGCAGAGGAGGCAGGCUUCGGUGGCGCGAUAGCGCCAACGUCCUCAACCUCCAAUGCAUCCCACCACAUCAUGAUGCCUGAAGAGCCUUGGUUUUUUG [G10A A27G C31G G107C], the “polymerase ribozyme fitness (log ratio)” value is -2.98.
Regarding GACCAAUCGGCCCUCAGAGCUCGAGAACAUCUUCGGAUGCAGAGGAGUCAGGCUUCGGUGUCGCGAUAGCGCCAACGUCCUCAACCUCCAAUGCAUCCCACCACAUGAUGAUGCCUGAAGAGCCUUGGUUUUUUU [U9G G48U G61U G135U], the “polymerase ribozyme fitness (log ratio)” value is -1.68.
Turning to GACCAAUCUACCAUCAGAGCUCGAGAACAUCUUCGGAUGCAGAGGAGGGAGGCUUCGGUGGCGCGAUAGCGCCAACGUCCUCACCCUCCAAUGCAUCCCACCACAUGAUGAUGCCUGAAGAGCCUUGGUUUUUUG [G10A C13A C49G A84C], the “polymerase ribozyme fitness (log ratio)” value was -0.63.
As for GACCAAUCUACCCUCAGAGCUCGAGAACAUCUUCGGAUGCAGAGGAGGCAGGCUUCGGUGGCGCGAUAGCGCCGACGUCCUCAACCUCCACUGCAUCCCACCACAUGAUGAUGCCUGAAGAGCGUUGGUUUUUUG [G10A A74G A91C C124G], the “polymerase ribozyme fitness (log ratio)” value is -0.108.
GACCAAUCUACCCUCAGCGCUCGAGAACAUCUUCGGAUGCAGAGGAGGCAGGCUUCGGUGGCGCGAUAGCGCCAACGUCCUCAACCUCCAAUGCAUCCCACCACAUGAUGAUGCCUGAAGAAGCUUGGUUUUUUG [G10A A18C G122A C123G]: the “polymerase ribozyme fitness (log ratio)” value is -0.417.
In the case of GACCAAUCGGCCCUCAGAGCUCGAGAACAUCUUCGGAUGCAGAGGAGGCAGGCUUCGGUGGCGCGAUAGCUCCAACGUCCUCAACCUACAAUGCAUCCCACCACAUGAUGAUGCAUGAAGAGCCUUGGUUUUUUG [U9G G71U C88A C115A], the “polymerase ribozyme fitness (log ratio)” value is -2.67.
With GACCAAUCGGCCCUCAGAGCUCGAGAACAUCUUCGGAUGCAGAGGAGGCAGGCUUCGGUGGCGCGAUAGCGCCAACGUCCUCAACCGCCAAUGCAUCCCACCACAUGAUGAUGCCUGAAGAGCCUUGGUUUUUUG [U9G U87G], the “polymerase ribozyme fitness (log ratio)” value amounted to 0.583.
In the case of GACCAAUCGGCCCUCAGAGCUCGAGAACAUCUUCGGAUGCAGAGGAGGCAGGCUUCGGUGGCGCGAUAGCGCCAACGUCCUCAACCCCCAAUGCAUCCCACCACAUGAUGAUGCCUGAAGAGCCUUGGUUUUUUG [U9G U87C] it was -0.367; in that of GACCAAUCUACCCUCAGAGCUCGAGAACAUCUUCGGAUGCAGAGGAGGCGGGCUUCGGUGGCGCGAUAGCGCCAACGUCCUCAACCUCCAAUGCAUCCCACCACAUGAUGAUGCCUGAAGAGCCUUGGUUUUUUG [G10A A50G], 0.0587.
Consider GACCAAUCGGCCCUCAGAGCUCGAGAACAUCUUCGGAUGCAGAGGAGGCAGGCUUCGGUGGCGCGAUAGCGCCAACGUCCUCAACCUCCAAUGCAUCCCACCACAUGAUGAUGCCUAAAGAGCCUUGGUUUUUUG [U9G G117A], for which the “polymerase ribozyme fitness (log ratio)” value came to 0.595.
Consider GACCAAUCUACCCUCAGAGCUCGAGAACAUCUUCGGAUGCCGAGGAGGCAGACUUCGGUGGCGCGAUAGCGCCAACGUCCUCAACCUCCAAUGCAUCCCACCACAUGAUGAUGCCUGAAGAGCCUUGGUUUUUUG [G10A A41C G52A], for which the “polymerase ribozyme fitness (log ratio)” value is -1.27.
On to GACCAAUCGGCCCUCAGAGCUCGAGAACAUCUUCGGAUGCAGAGGAGGCAGGCUUCGGUGGCGCUAUAGCGCCAACGUCCUCAACCUCCAAUGCAUCCCACCACAUGAUGAUGCCUGAAGAGCCUUGGUUUUUUG [U9G G65U], for which the “polymerase ribozyme fitness (log ratio)” value is -5.74.
For the variant GACCAAUCGGCCCUCAGAGCUCGAGAACAUCUUCGGAUGCAGAGGAGGCAGGCUUCGGUGGCCCGAUAGCGACAACGUCCUCAACCUCCAAUGCAUCCCACCACAUGAUGAUGCCUGAAGAGCCUUGGUUUUUUG [U9G G63C C72A], the “polymerase ribozyme fitness (log ratio)” value was -3.45.
As for GACCAAUCGGCCCUCAGAGCUCGAGAACAUCUUCGGAUGCAGAGGAGGCACGCUUCGGUGGCGCGAUAGCGCCAACGUCCUCAACCUCCAAUGCAUCCCACCACAUGAUGAUGCCUGAAGAGCCUUGGUUUUUUG [U9G G51C], the “polymerase ribozyme fitness (log ratio)” value is -3.27.
With GACCAAUCGGCCCUCAGAGCUCGAGAACAUCUUCGGAUGCAGAGGAGGCAGGCUUCGGGGGCGCGAUAGCGCCAACGUCCUCAACCUACAAUGCAUCCCACCACAUGAUGAUGCCUGUAGAGCCUUGGUUUUUUG [U9G U59G C88A A118U], the “polymerase ribozyme fitness (log ratio)” value is 0.424.
With GACCAAUCGGCCCUCAGAGCUCGAGAACAUCUUCGGAUGCAGAGGAGGCAGGCUUCGGUGGCUCGAUAGCGCCAACGUCCUCAACCUCCAAUGCAUCCCACCACAUGAUGAUGCCUGAACAGCCUUGGUUUUUUG [U9G G63U G120C], the “polymerase ribozyme fitness (log ratio)” value worked out at 0.237.
In the case of GACCAAUCGGCCCUCAGAGCUCGAGAACAUCUUCGGAUGCAGAGGAGGCAGACUUCGGUGGCGCGAUAGCGCCAACGUCCUCAACCUCCAAUGCAUCCCACCACAUGAUGACGCCUGAAGAGCCUUGGUUUUUUG [U9G G52A U112C] it was 1.21.
